Data as given in doi:10.1101/2020.10.05.326595 (bioRxiv, 2020).

B1: ZTL G46A:G80R (LOV domain construct, residues 29-165) (domain or fragment, UniProt Q94BT6 29-165, looked up)
chain: GGPIPYPVGNLLHTAPCAFVVTDAVEPDQPIIYVNTVFEMVTGYRAEEVLGRNCRFLQCRGPFAKRRHPLVDSMVVSEIRKCIDEGIEFQGELLNFRKDGSPLMNRLRLTPIYGDDDTITHIIGIQFFIETDIDLGP
B2: ZTL G46S:G80R (LOV domain construct, residues 29-165) (domain or fragment, UniProt Q94BT6 29-165, looked up)
chain: GGPIPYPVGNLLHTAPCSFVVTDAVEPDQPIIYVNTVFEMVTGYRAEEVLGRNCRFLQCRGPFAKRRHPLVDSMVVSEIRKCIDEGIEFQGELLNFRKDGSPLMNRLRLTPIYGDDDTITHIIGIQFFIETDIDLGP

Tests used:
crystal structure = target: the molecule itself; assay: crystal structure
SEC-SAXS = target: the molecule itself; assay: SEC-SAXS

Row | Protein | binding result (crystal structure) | stoichiometry N (SEC-SAXS)
1 | B1 | binds | –
2 | B2 | – | 2
